Assays:
[1] = molecular target: T1, His-HaWRI1(52-234), AP2 domain (Helianthus annuus, UniProt A0A251SM13 52-234); test: competition; 10x to 60x unlabeled probe against biotin-labeled N1 (EMSA); EMSA: 15 mM HEPES-KOH pH 7.5, 7.5 mM KCl, 0.5 mM EDTA, 5% glycerol, 2 mM DTT, 1 ug/uL BSA, 0.05 ug/uL poly(dI-dC), 20 uL, on ice 30 min; 5% native PAGE; conditions: protein: recombinant; tags: 6xHis (pET41a-6xHis vector); label: none
[2] = molecular target: T1, His-HaWRI1(52-234), AP2 domain; test: EMSA; poly(dI-dC) 0.05 ug/uL; 280 ng protein; 2 fmol/uL probe; EMSA: 15 mM HEPES-KOH pH 7.5, 7.5 mM KCl, 0.5 mM EDTA, 5% glycerol, 2 mM DTT, 1 ug/uL BSA, 0.05 ug/uL poly(dI-dC), 20 uL, on ice 30 min; 5% native PAGE; conditions: protein: recombinant; tags: 6xHis (pET41a-6xHis vector); label: 5' biotin

T1 sequence (A0A251SM13 entry or part of it): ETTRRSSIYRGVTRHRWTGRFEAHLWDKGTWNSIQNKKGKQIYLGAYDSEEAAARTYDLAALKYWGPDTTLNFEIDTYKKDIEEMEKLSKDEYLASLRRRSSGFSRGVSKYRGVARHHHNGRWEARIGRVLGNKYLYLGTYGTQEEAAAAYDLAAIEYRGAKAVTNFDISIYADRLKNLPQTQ

| Binder | binding result [1] | binding result [2] |
| --- | --- | --- |
| proBCCP2 AW-box cold probe (dsDNA) DNA 1: TACTTCCTCGGTTTCATCGTCCAC DNA 2: GTGGACGATGAAACCGAGGAAGTA | binds |  |
| proBCCP2 AW-box probe (dsDNA) DNA 1: TACTTCCTCGGTTTCATCGTCCAC DNA 2: GTGGACGATGAAACCGAGGAAGTA |  | binds |
